# Legend:
# [1] = system: CCCCCCCCCCCCCCCC(=O)CC(=O)SCCNC(C)=O; test: purified protein; conditions: co-substrate C5 diketide-NAC, 37 °C, 20 min
# [2] = system: CCCCCCCCCCCCCCCCCC(=O)CC(=O)SCCNC(C)=O; test: purified protein; conditions: co-substrate C5 diketide-NAC, 37 °C, 20 min
substance,measurement,setting,value
CsyB (Aspergillus oryzae RIB40; I375F),Km,[1],5.4 ± 1.8 mM
same,kcat,[1],0.713 ± 0.075 s⁻¹
same,kcat/Km,[1],132 M⁻¹ s⁻¹
same,Km,[2],6.5 ± 2.1 mM
same,kcat,[2],0.882 ± 0.14 s⁻¹
same,kcat/Km,[2],136 M⁻¹ s⁻¹
